Laboratory results reported in paper PMC314469, “Protein Interaction Networks by Proteome Peptide Scanning” (PLoS Biology, 2004).

Legend:
Assay in all cases: SPOT array
[1] = target: T1, Yhr016c SH3 (YSC84_YEAST), P32793
T1 chain: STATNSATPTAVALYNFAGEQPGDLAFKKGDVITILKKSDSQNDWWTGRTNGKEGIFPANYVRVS

[2] = target: T2, Rvs167 SH3 (RV167_YEAST), P39743
T2 chain: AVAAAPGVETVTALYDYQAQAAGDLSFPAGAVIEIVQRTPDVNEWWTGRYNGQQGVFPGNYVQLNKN

[3] = target: T3, Boi2 SH3 (BOI2_YEAST), P39969
T3 chain: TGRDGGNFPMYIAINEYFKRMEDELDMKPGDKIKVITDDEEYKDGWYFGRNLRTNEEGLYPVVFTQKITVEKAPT

[4] = target: T4, Yfr024 SH3 (LSB3_YEAST), P43603
T4 chain: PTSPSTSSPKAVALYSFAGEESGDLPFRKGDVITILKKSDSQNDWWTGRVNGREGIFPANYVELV

[5] = target: T5, Boi1 SH3 (BOI1_YEAST), P38041
T5 chain: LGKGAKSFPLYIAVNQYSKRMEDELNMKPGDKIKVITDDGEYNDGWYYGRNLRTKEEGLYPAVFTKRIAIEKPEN

Binder | normalised SPOT signal, Boehringer light units (BLU); mean over the file's lines of this peptide [1] | normalised SPOT signal, Boehringer light units (BLU); mean over the file's lines of this peptide [2] | normalised SPOT signal, Boehringer light units (BLU); mean over the file's lines of this peptide [3] | normalised SPOT signal, Boehringer light units (BLU); mean over the file's lines of this peptide [4] | normalised SPOT signal, Boehringer light units (BLU); mean over the file's lines of this peptide [5]
AIEPGVPSRYSDET [YDL246C 91-104] | 153 | 35.9 | 22.8 | 151 | 63
YSLPMHPGRWWVHT [YHR072W 222-235] | 308 | 78.1 | 158 | 712 | 79.5
AGQPEIPLKSNNKS [YKL104C 225-238] | 102 | 0 | 33.5 | 1260 | 69.5
AIPPPVPNRPGGTT [YLR144C 7-20] | 6020 | 186 | 23.8 | 11200 | 10.1
AGTPNVPTRRPILK [YIR003W 42-55] | 4390 | 448 | 26.9 | 24700 | 4210
YWAPVSPLKSINLF [YLR305C 1424-1437] | 168 | 25.1 | 231 | 1590 | 104
YTLPLLPGKGGFRI [YFR048W 228-241] | 96.3 | 28.3 | 20.3 | 474 | 107
ALEPGIPDRFSPEM [YLR070C 92-105] | 30.2 | 56.6 | 31.2 | 96.8 | 102
AAWPLDPARERWTR [YGR031W 269-282] | 134 | 25.5 | 52.7 | 300 | 549
YYGPNSPLKLDEEN [YKL108W 203-216] | 36 | 49.9 | 12.4 | 0 | 0
AFVPTNPWRSSMSL [YIL162W 315-328] | 58.7 | 57 | 39.8 | 840 | 294
AGSPIRPYKQRYLL [YGL073W 526-539] | 180 | 343 | 352 | 1770 | 744
YSNPQTPLRSLAGL [YDR420W 1404-1417] | 1600 | 260 | 104 | 2680 | 80.5
AGHPMKPHRIRMAH [YNL330C 36-49] | 895 | 279 | 162 | 6490 | 138
AKQPKEPKKRTTRR [YBR089C-A 7-20] | 78 | 130 | 105 | 854 | 196
ASLPVGPRKNGMNV [YAR061W 26-39] | 167 | 170 | 88 | 619 | 158
YTTPKTPPRPKTIL [YKR028W 957-970] | 27400 | 1060 | 53.6 | 28800 | 42.6
YTNPRAPGKLQDSH [YIL054W 33-46] | 238 | 64.7 | 26.1 | 478 | 153
AKSPLLPFKLLSDR [YCL073C 330-343] | 229 | 45.1 | 46.2 | 4310 | 84.8
YRYPQTPMRLEIAV [YLR213C 295-308] | 365 | 90.7 | 146 | 1060 | 208
AARPTRPDKARRLG [YLR029C 39-52] | 194 | 109 | 198 | 4960 | 173
AAQPPLPSRNVASG [YCR088W 446-459] | 107000 | 59700 | 62.8 | 47300 | 98.4
